From US9399663B2, “Competitive inhibitor of GP120” (priority 2014, dated 2016)
Several values for one entry are separate records, joined by “and”; a condition that tells them apart may be missing. Equal values may be shown once. Read-outs that look alike come from different tables or passages of the source.

Legend:
[1] = molecular target: T1, recombinant TUBB3 (Homo sapiens, UniProt Q13509); assay: SPR (BIACORE T200) binding to immobilized TUBB3; conditions: for Kd: Ligand: TUBB3
T1 construct: purchased MyBioSource, San Diego, Calif
T1 sequence (Q13509 whole entry): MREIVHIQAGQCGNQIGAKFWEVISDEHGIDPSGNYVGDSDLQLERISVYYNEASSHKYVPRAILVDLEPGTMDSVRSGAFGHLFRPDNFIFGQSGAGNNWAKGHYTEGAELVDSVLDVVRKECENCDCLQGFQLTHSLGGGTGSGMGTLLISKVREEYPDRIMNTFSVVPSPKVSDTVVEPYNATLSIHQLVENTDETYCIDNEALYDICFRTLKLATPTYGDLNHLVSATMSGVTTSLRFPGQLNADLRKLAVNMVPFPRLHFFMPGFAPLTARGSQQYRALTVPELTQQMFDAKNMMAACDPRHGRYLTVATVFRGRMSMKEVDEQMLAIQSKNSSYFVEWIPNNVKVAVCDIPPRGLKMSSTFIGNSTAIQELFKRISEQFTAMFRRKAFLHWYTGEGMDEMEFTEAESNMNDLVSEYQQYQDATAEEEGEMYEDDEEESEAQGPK
Procedure: (§1) Surface plasmon resonance (SPR). BIACORE® T200™ was used to determine the kinetic parameters for the binding of recombinant TUBB3, tubulin dimer, and assembled microtubules (ligands) to the various isoforms of gp120 or related peptides (analytes). Recombinant TUBB3, tubulin dimer, and assembled MTs were covalently attached to different flow cells of a carboxymethyldextran (CM5) sensor chip by amine coupling. The chip surface was activated for 720 sec at 10 μL/min with of 1:1 mixture of 0.1 M N-Hydroxysuccinimide (NHS) and 0.5 M 1-Ethyl-3-(-3-dimethylaminopropyl)-carbodiimide hydrochloride (EDC). […] After ligand capture, the surfaces were deactivated by injecting 1 M ethanolamine for 720 sec at 10 μL/min. HBS-P (10 mM HEPES, pH7.4, 150 mM NaCl, 0.05% P-20) with 2 mM MgCl2 used as the running buffer. Flow cell 1 on each chip was left empty and used for reference surface. […] Kinetic studies were performed by injecting different concentrations of the analytes in triplicate. The chip surface was regenerated by with 10 mM glycine pH 1.5 injected for 30 sec at a flow rate of 100 μL/min. Each sample was injected for 60 sec (contact time) followed by a dissociation time of 300 sec at a flow rate of 100 μL/min. Data was analyzed with BIACORE® T200™ Evaluation Software (version 1) to determine the equilibrium dissociation constant (KD) from a 1:1 binding model. Binding studies with peptides Helix A and Helix B were done in the same way as described above. Kinetic studies were performed by injecting different concentrations (20 μM, 10 μM, 5 μM, 2.5 μM, 1.25 μM and 0.625 μM) of Helix A and Helix B. Competition experiments with Helix A and Helix B were performed by mixing 100 nM gp120 isoforms with 10 μM of each peptide and injecting over the sensorchip surface.
(§2) Recombinant TUBB3, tubulin dimer, and assembled MTs from bovine brains were immobilized on a BIACORE® CM5 chip by amine coupling. Different concentrations of gp120s (from 3.13 to 100 nM) were injected over the surface in triplicates in each experiment. The kinetics of interaction was analyzed using a BIACORE® T200™ instrument. BiaEvaluation software was used to calculate binding affinities based on 1:1 binding model.

[2] = tested on: tubulin dimer; assay: SPR (BIACORE T200) binding to immobilized tubulin dimer; set-up: species or system Porcine
Procedure: as §1
as §2, with “BiaEvaluation software was used to calculate binding affinities based on 1:1 binding model.” left out

[3] = tested on: assembled MTs; assay: SPR (BIACORE T200) binding to immobilized assembled microtubules; set-up: species or system Porcine
Procedure: Surface plasmon resonance (SPR). BIACORE® T200™ was used to determine the kinetic parameters for the binding of recombinant TUBB3, tubulin dimer, and assembled microtubules (ligands) to the various isoforms of gp120 or related peptides (analytes). Recombinant TUBB3, tubulin dimer, and assembled MTs were covalently attached to different flow cells of a carboxymethyldextran (CM5) sensor chip by amine coupling. The chip surface was activated for 720 sec at 10 μL/min with of 1:1 mixture of 0.1 M N-Hydroxysuccinimide (NHS) and 0.5 M 1-Ethyl-3-(-3-dimethylaminopropyl)-carbodiimide hydrochloride (EDC). […] After ligand capture, the surfaces were deactivated by injecting 1 M ethanolamine for 720 sec at 10 μL/min. HBS-P (10 mM HEPES, pH7.4, 150 mM NaCl, 0.05% P-20) with 2 mM MgCl2 used as the running buffer. Flow cell 1 on each chip was left empty and used for reference surface. TUBB3 (1040 RU), tubulin dimer (2086 RU), and assembled MTs (990 RU) were captured on the remaining 3 flow cells. Kinetic studies were performed by injecting different concentrations of the analytes in triplicate. The chip surface was regenerated by with 10 mM glycine pH 1.5 injected for 30 sec at a flow rate of 100 μL/min. Each sample was injected for 60 sec (contact time) followed by a dissociation time of 300 sec at a flow rate of 100 μL/min. Data was analyzed with BIACORE® T200™ Evaluation Software (version 1) to determine the equilibrium dissociation constant (KD) from a 1:1 binding model. Binding studies with peptides Helix A and Helix B were done in the same way as described above. Kinetic studies were performed by injecting different concentrations (20 μM, 10 μM, 5 μM, 2.5 μM, 1.25 μM and 0.625 μM) of Helix A and Helix B. Competition experiments with Helix A and Helix B were performed by mixing 100 nM gp120 isoforms with 10 μM of each peptide and injecting over the sensorchip surface.
Recombinant TUBB3, tubulin dimer, and assembled MTs from bovine brains were immobilized on a BIACORE® CM5 chip by amine coupling. […] The kinetics of interaction was analyzed using a BIACORE® T200™ instrument. […]

[4] = molecular target: T2, tubulin β-3 (TUBB3) (Rattus norvegicus, UniProt Q4QRB4); assay: LC-MS/MS of gp120 immunocomplex from lysates of gp120-treated neurons; format: binding; conditions: anti-gp120 immunoprecipitation
T2 construct: Neurons exposed to gp120IIIB were lysated in RIPA buffer; endogenous in cells; host or cells: primary cortical neurons from embryonic (E17-18) Sprague Dawley rats
T2 sequence (P68370 whole entry): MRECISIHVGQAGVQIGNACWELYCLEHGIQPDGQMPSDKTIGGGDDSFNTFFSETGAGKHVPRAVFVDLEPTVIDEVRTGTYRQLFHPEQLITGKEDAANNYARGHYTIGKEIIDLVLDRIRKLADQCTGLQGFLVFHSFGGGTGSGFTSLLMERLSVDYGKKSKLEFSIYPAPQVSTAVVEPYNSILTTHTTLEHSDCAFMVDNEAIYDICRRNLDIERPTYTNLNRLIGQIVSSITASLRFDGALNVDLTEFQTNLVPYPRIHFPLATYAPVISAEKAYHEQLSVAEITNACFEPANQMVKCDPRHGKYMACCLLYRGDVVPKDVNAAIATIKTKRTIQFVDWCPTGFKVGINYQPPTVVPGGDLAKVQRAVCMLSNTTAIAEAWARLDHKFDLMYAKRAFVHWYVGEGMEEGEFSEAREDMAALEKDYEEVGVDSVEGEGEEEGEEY
T2 sequence (Q4QRB4 whole entry): as the sequence (Q13509 whole entry) above, with E441D counted along it
Procedure: LC-MS/MS analysis identifies tubulin β-3 (TUBB3) as an interactor of gp120IIIB Top panel: Chromatogram of the whole data set of gp120 interactors. In orange is indicated the peak (retention time=46.45 minutes) associated to peptide ^337[…]^350 (SEQ ID NO: 15) of TUBB3. Bottom panel: The fragmentation spectrum of peptide of TUBB3 is shown to identify TUBB3 among gp120IIIB interactors. The series of y sequence coverage is highlighted.
Liquid chomatography-mass spectrometry (LC-MS/MS): Neurons exposed to gp120IIIB were lysated in RIPA buffer with protease and phosphatase inhibitors (THERMO FISHER […]®) at 4° C. and then incubated with mouse anti-gp120 antibody. Gp120 complex of interacting proteins was eluted from immobilized protein A beads, reduced, alkylated and digested with trypsin. The tryptic digests were analyzed by mass spectrometry, using a LTQ ORBITRAP XL™ hybrid FTMS (Fourier transform mass spectrometer) (THERMO FISHER […]®). Peptide separation was performed with solvent A (0.1% HCOOH in H2O) and solvent B (0.1% formic acid in ACN), using the following gradient: from 5% B for 1 minute to 60% B in 70 minutes. Peptides were analyzed using a precursor mass range of 300-5000 Da. MS/MS analyses were used to query a non-redundant protein database (rat.fasta) using the software SEQUEST™. […]

[5] = 100 nM gp120 alone, 60 sec injection

With “gp120IIIB: HIV envelope protein gp120, strain IIIB, purchased from Immunodiagnostics” as the substance, how does the “SPR response (2-1) RU, Fc2: Tubulin β-3 1092 RU” value [1, 5] read?
Its value is 35 RU and 44 RU.

What about the Kd ([1]; mean of two independent experiments, read-out: Mean KD) of the same substance?
The Kd was 7.5 nM.

And the Kd ([1]; single experiment, gp120 3.13 to 100 nM, 1:1 binding model, read-out: KD)?
The Kd was 7.91 nM and 7.05 nM.

And the “SPR response (3-1) RU, Fc3: Tubulin Dimer 1900 RU” value [2, 5]?
The value was 21 RU and 14 RU and 18.6 RU.

And the Kd ([2]; Ligand: Tubulin Dimer, mean of two independent experiments)?
The Kd was 12.3 nM.

What about the “SPR response (4-1) RU, Fc4: Microtubules 970 RU” value [3, 5] of the same substance?
The value was 19 RU and 15 RU and 23.2 RU.

What about the Kd ([3]; Ligand: Assembled MTs, mean of two independent experiments) of the same substance?
The Kd was 10 nM.

What about the “TUBB3 identified among gp120 interactors (LC-MS/MS)” value [4] of the same substance?
Its value is “interactor”.
